Test: soluble on expression in E. coli; label from the status in PepcDB or PDB records

Sequence	soluble on expression in E. coli
MGSDKIHHHHHHMKITTVGLDIAKSVFHFVGVNKAGKLVKKKMIKRKDLLHFLAQIEPCLVVMEACGGANYWAREFEKVGHQVKLIAPQYVVPYRQGNKNDYNDALAIAEAAQRPNMRFVQPKPAEQQDIQMLHRMRERLSKQSTALVNQVRGMLAEYGIVITKGKASFRSKLPDILENADNELTAKGRSIFYQLYEEFNGIEERLKRCDNQVQQETKNNHVCQRLESVPGIGPVTATAFYAAVGEGKDFTNGRHFSAWCGLVPKQHSSGGKDNLLGISKRGNAYLRTLFIHGARAVLYHSDGKGDRFSRWAIALAERRGFNRACVAVANKLARIAWVIAAREDEYRMAV	not soluble
MAAKDRIQAIKQMVANDKKVTVSNLSGIFQVTEETIRRDLEKLEDEGFLTRTYGGAVLNTAVLTENIHFYKRASSFYEEKLLIARKALPFIDNKTTMAADSSSTVMELLKLLQDRSDLTLLTNSAEAIHVLAQSEIKVVSTGGELNKNTLSLQGRITKEIISRYHVDIMVMSCKGLDINSGALDSNEAEAEIKKTMIRQATEVALLVDHSKFDRKAFVQLADFSHINYIITDKSPGAEWIAFCKDNNIQLVWLEHHHHHH	soluble
MHIPENLYVVGTMNIADRSLALVDLALRRRFAFVGLEPRLGQVWRDWVVKECAVDPGLVADIERRIAELNDQIAADARLGKQFRIGHSYVTPAHRLEAGDTKKWFLQVVETEIGPLLDEYWFDAPDEAQKAIARLTQGLEHHHHHH	not soluble
MGSDKIHHHHHHMAEEIPVYLFTGFMDSGKTSLIKDTIFENDFANGSKGLIIMCEDGDVEYDMDKLKAANIQVAEIDSEDEFAAAKLNELNMQYLPEQVFIEYNGTWGIDKIIEAELPKGWVIVQSLATVDSTTFDLYMNNMRAMMQEQVFASDVVIFNRTDDDTDRGHLRRTIKNINRKAQIVYERKDGTIDERPEELPFDINQDVIELSDADYAIWYMDAMENYKKYDGKVVKFLALVYNPDKLRKGVMVPGRFAMTCCIEDVTFIGFKCKYEDESSIPHKSWITITARVHVEFAREYKGKGPVLYPVSIEPAEKPQDELVYFS	not soluble
MNDNAFTFQTLHPETIMDALFEQGIMVDSGLTPLNSYENRVYQFQDEDRRRFVVKFYRPERWSVDQIREEHQFALELVKDEVPVAAPLAFNGQTLLAHQGYHYAIFPSVGGRQFEADNIDQMEAVGRYLGRLHQTGRKRPFTFRPDIGLAEYLFEPRQVFEDAALIPSGQKAAFLKATDTLLSAVTECWRTDFATLRLHGDCHAGNILWRDGPLFVDLDDARNGPAIQDLWMLLNGDKAEQRMQLETIIEAYEEVSEFDTAEIGLIEPLRAMRLVYYLAWLIRRWGDPAFPKNFPWLTGEDYWQRQTTTFIEQTKILHEPPLQLTPMYLEHHHHHH	not soluble
MDAKETSATDLKRPREEDDNGGAATMETENGDQKKEPACFSTVIPGWFSEMSPMWPGEAHSLKVEKVLFQGKSDYQDVIVFQSATYGKVLVLDGVIQLTERDECAYQEMITHLPLCSIPNPKKVLVIGGGDGGVLREVARHASIEQIDMCEIDKMVVDVSKQFFPDVAIGYEDPRVNLVIGDGVAFLKNAAEGSYDAVIVDSSDPIGPAKELFEKPFFQSVARALRPGGVVCTQAESLWLHMDIIEDIVSNCREIFKGSVNYAWTSVPTYPSGVIGFMLCSTEGPDVDFKHPLNPIDESSSKSNGPLKFYNAEIHSAAFCLPSFAKKVIESKAN	soluble
MAHTSRHNEFSIGASASLWECMLNQWLGRLYQNQDAHTGLQFEARIAQRQSLVKQLHERQLDLLITTEAPKMDEFSSQLLGYFTLALYTSAPSKLKGDLNYLRLEWGPDFQQHEAGLIGADEVPILTTSSAELAQQQIAMLNGCTWLPVSWARKKGGLHTVVDSTTLSRPLYAIWLQNSDKNALIRDLLKINVLDEVY	not soluble
HHASPRKQGKKENGPPHSHTLKGRRLVFDN	soluble
MSLKSSTEKKLAAARGTAELIVEDAKKEAETTKKEALLEAKEENHRLRTEIENELRGRRTETQKAENRLLQREENLDRKDTSLSKREATLERKEESISKRQQQIEEKESKLAEMIQAEQTELERISALSKEEAKSIILNQVEEELTHDTAIMVKESENRAKEESDKKAKNILSLAIQRCAADHVAETTVSVVTLPNDEMKGRIIGREGRNIRTLETLTGIDLIIDDTPEAVILSGFDPIRREIARIALEKLVQDGRIHPARIEEMVDKARKEVDEHIREVGEQATFEVGIHSIHPDLIKILGRLRYRTSYGQNVLNHSLEVSKLAGILAGELGEDVTLAKRAGLLHDIGKAIDHEIEGSHVEIGVELATKYKENDVVINSIASHHGDTEATSVIAVLVAAADALSAARPGARSETLENYIRRLEKLEEISESYDGVEKSYAIQAGREVRIIVEPDTIDDLSSYRLARDIRKRIEEELDYPGHIKVTVIRETRAVEYAKEGHHHHHH	not soluble
MVETLPALEIGEDERLDLENLATGAFFPVKGFMTREEALSVAHEMRLPTGEVWTIPILLQFREKPRVGPGNTVALLHGGERVALLHVAEAYELDLEALARAVFGTDSETHPGVARLYGKGPYALAGRVEVLKPRPRTPLEKTPEEVRAFFRQRGWRKVVAFQTRNAPHRAHEYLIRLGLELADGVLVHPILGAKKPDDFPTEVIVEAYQALIRDFLPQERVAFFGLATPMRYAGPKEAVFHALVRKNFGATHFLVGRDHAGVGDFYDPYAAHRIFDRLPPLGIEIVKVGAVFHCPLCGGIASERTCPEGHREKRTAISMTKVRALLREGKAPPSELVRPELLPILRRGV	soluble
MSLGRFVRHALITAGTKGLGKQVTEKLLAKGYSVTVTYHSDTTAMETMKETYKDVEERLQFVQADVTKKEDLHKIVEEAMSHFGKIDFLINNAGPYVFERKKLVDYEEDEWNEMIQGNLTAVFHLLKLVVPVMRKQNFGRIINYGFQGADSAPGWIYRSAFAAAKVGLVSLTKTVAYEEAEYGITANMVCPGDIIGEMKEATIQEARQLKEHNTPIGRSGTGEDIARTISFLCEDDSDMITGTIIEVTGAVDVIHREGHHHHHH	soluble
MSNAMPWVRFYLYDWISGTNGMTSEQRGVYITLLVCMYEKKEPLKTDFETLARVCHCSQKKFAAIVEYLMRNDKLIEIDGRLWNLDVEEELNNLSEELDNFTFNNNEEKEVKYVN	not soluble
MGSDKIHHHHHHMDTLFTINACKTFGCRNLGLPSAAEYHFPNFRLGYPALYCAACGSYPPLFNEREFRPWLAAYLTDHARRYGYFCPVCYQRDIIRYGRNPQGTQRLQCRHCKKVWTPKFPHIAPIEAPRRICSVPLIAPFQGNAAGQKLYFLLSFDAVRGNVIHLTSNFTPFAVGESLRYRWRGGQADREETDDIIQRISLTEMRFLQRSQFDEIQYGSAMQKRHARGNILRPVIAAHGHFKLLSQRFPEVKTHVIAHECFLRGAAIVAWAPLFRQRQGDLWYVEEEIRNPASPAPWQLLGKTHHGWWQNSWQRWTQEENQKMVCRLAGTVEENAFLPDLAASRRFTIWLKNRPAFAQSALYSAGRVTQIVASLVQEYNATLTAAAPGG	not soluble
MAHHHHHHMNSKASPAALPMRQGRGFQVIVHGVLEGAECVEVGSVFARTQLFFGPDWAFLESNSGYGEDAAADDDDLVEPTYSNNAEVVTQLCDCAKGPVPYFSFTAPFEFALTSTNPFGWPQLVITLHTVEGAGGSSGKGADGNDTQLLGSGESIIGYGRCFIPMKSGYHTKKVPMMQLESTTSKQQLISFLTREKPVLRDLSFLCTGDDQVMLHARPLDGYVKLNFSVMINGMESSGFEV	soluble
MSKNERMVGISRRTLVKSTAIGSLALAAGGFSLPFTLRNAAAAVQQAREKVVWGACSVNCGSRCALRLHVKDNEVTWVETDNTGSDEYGNHQVRACLRGRSIRRRINHPDRLNYPMKRVGKRGEGKFERISWDEALDTIASSLKKTVEQYGNEAVYIQYSSGIVGGNMTRSSPSASAVKRLMNCYGGSLNQYGSYSTAQISCAMPYTYGSNDGNSTTDIENSKLVVMFGNNPAETRMSGGGITYLLEKAREKSNAKMIVIDPRYTDTAAGREDEWLPIRPGTDAALVAGIAWVLINENLVDQPFLDKYCVGYDEKTLPADAPKNGHYKAYILGEGDDKTAKTPQWASQITGIPEDRIIKLAREIGTAKPAYICQGWGPQRQANGELTARAIAMLPILTGNVGISGGNSGARESTYTITIERLPVLDNPVKTSISCFSWTDAIDHGPQMTAIRDGVRGKDKLDVPIKFIWNYAGNTLVNQHSDINKTHEILQDESKCEMIVVIENFMTSSAKYADILLPDLMTVEQEDIIPNDYAGNMGYLIFLQPVTSEKFERKPIYWILSEVAKRLGPDVYQKFTEGRTQEQWLQHLYAKMLAKDPALPSYDELKKMGIYKRKDPNGHFVAYKAFRDDPEANPLKTPSGKIEIYSSRLAEIARTWELEKDEVISPLPVYASTFEGWNSPERRTFPLQLFGFHYKSRTHSTYGNIDLLKAACRQEVWINPIDAQKRGIANGDMVRVFNHRGEVRLPAKVTPRILPGVSAMGQGAWHEANMSGDKIDHGGCVNTLTTLRPSPLAKGNPQHTNLVEIEKI	soluble
MSLSDAVNKHPKSPNPQLCAVTLLGNLVATPDIRYRANPATAVTEIVLATSSKWLDKITNKYKEWTSYHHVKVEGELVELALLNANKGDIILLHGYLSNIKPKSTDKSTNHLGIVHANFVQKFEKGYTQAINQIHCSAQLTSKPKLMLTEQNKNITQANIVINQHIYNTDKQAWQTISVERAIHVWGKQAQYLAEHGDIGDELMLEGKLSYTSGVSKDQFIEVKNVHLFKGTLEHHHHHH	soluble
MAIPDYQAVMLPLLKYAGDGKEHHIRDAIEKLAEEFELSEEERKELLPSGQQAIFKNRIGWANTYLKKAGLLGSRKKGYFSITRRGLDVLREKPPSIDVSFLKRYKEFNEFYNKDKQVLIDKPDVPEAEGKRALDPEESLEIAYQKLHNELVSEIISTTKKCSPAFFESLVVDVLTKMGYGGSRVDAGKAIGKSHDGGIDGIIKEDRLGLDVIYIQAKRWEGTVSKPEIQKFAGALIGKKAKKGVFITTSSFSKEAIEYADFTGNIVLVDGEMLARLMIEYNVGVSRVKSYEVKKMDTDYFEDGVI	not soluble
SLDTEKDCIKAVAAKDGITVIKVKSSNKLLSWHFMRKLFEIFEFYQEPVDMVATSEVGVSLTIDNDKNLPDIVRALSDIGDVTVDKDMVIICIVGDMEWDNVGFEARIINALKGVPVRMISYGGSNYNVSVLVKAEDKKKALIALSNKLFNSRATKA	soluble
MTRACNLYVFKNKYVSFNLLDSPNSNPKLLKISLPFNFMDEFEGLLKAVGSAPWYKLIGMVPKLQGDRVVVEMEIDRSKHLQALGTTHGGAIASVLDSAIGLNVNREVVKMGKTAVTAQLNIHYIRPVTEGKIVGVGMPMHIGSKVTVGYGEVRNEEGELVAAGTATFYIIDRRFRDLEHHHHHH	not soluble
FPDILDNRIEKMSSCFKQAAEEYGYKAENFIIYPIKVNQMRPVVEEIISHGKKFNLGLEAGSKPELHAVIAVNTDSDSLIVCNGYKDESYIELALLAQKMGKRIFLVVEKMNELKLIAKMAKQLNVQPNIGIRIKLASSGSGKWEESGGDASKFGLTSSELLEALDFMESKGLKDCLKLIHFHIGSQVTKIRRIKTALREASQFYVQLHSMGFNVEFVDIGGGLGVDYDGTRSSNSEGSVNYSIQEYVNDSISTLVDVSDKNGIPHPNIITESGRALTAH	soluble

From the DeepSol protein solubility set
